Data taken from article PMC10276142, “Protocol to measure protein-RNA binding using double filter-binding assays followed by phosphorimaging or high-throughput sequencing”.

Target: AGO2 (miR-449a RISC) (mouse, UniProt Q8CJG0 1-860)
Test: filter binding; titration regime, 0.5 nM target RNA (2.5 nM stock, 1 in 5), 37 C 1 h; stoichiometric point [RISC]/[target] 1.3 (77% active); no KD reported; Double filter binding (nitrocellulose/nylon), 5 uL reactions, 37 C for 1 h; compositions of Storage, Dilution and Reaction Mix buffers not given in material
Details: protein: recombinant; tags: FLAG; label: 5' 32P on target; guide:target seed pairing, guide nt 2-8 plus A opposite nt 1; rest of target single-stranded

Sequence of AGO2 (miR-449a RISC) (Q8CJG0 whole entry): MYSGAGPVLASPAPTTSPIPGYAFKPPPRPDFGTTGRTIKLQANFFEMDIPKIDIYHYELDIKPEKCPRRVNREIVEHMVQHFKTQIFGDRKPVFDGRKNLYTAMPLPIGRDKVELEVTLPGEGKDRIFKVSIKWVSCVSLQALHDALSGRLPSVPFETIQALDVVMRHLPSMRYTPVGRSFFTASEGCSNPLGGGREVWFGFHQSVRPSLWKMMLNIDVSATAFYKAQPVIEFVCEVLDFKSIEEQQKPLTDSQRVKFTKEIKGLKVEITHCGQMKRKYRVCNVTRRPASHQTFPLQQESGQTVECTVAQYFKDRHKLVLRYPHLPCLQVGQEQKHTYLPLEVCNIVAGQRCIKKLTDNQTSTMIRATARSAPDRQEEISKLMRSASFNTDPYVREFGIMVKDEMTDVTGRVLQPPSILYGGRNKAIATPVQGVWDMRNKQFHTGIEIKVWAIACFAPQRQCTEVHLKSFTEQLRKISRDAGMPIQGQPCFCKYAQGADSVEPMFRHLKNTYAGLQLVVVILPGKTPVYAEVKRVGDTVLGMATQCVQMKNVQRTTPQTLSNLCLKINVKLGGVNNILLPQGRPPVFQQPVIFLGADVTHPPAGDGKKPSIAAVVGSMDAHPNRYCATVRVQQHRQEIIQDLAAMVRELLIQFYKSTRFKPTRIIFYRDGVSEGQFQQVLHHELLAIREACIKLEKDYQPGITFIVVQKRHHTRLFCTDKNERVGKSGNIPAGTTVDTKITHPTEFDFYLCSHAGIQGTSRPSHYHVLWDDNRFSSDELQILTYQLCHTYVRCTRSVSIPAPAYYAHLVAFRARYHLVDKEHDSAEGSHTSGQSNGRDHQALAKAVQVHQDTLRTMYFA

B1: miR-449a guide / 8mer-site target RNA (mixed)
RNA 1: UGGCAGUGUAUUGUUAGCUGGU
RNA 2: AUGAAAUCGAUAUCUAUCACUGCCAACU
modifications: guide 5'-phosphate; target 5' 32P-phosphate
B1: binds.
